The record followed here is paper PMC4102245, “A molecular model for the role of SYCP3 in meiotic chromosome organisation” (eLife, 2014).

In the series the target is T1, SYCP3 dCt6 dBP1+2 (human, UniProt Q8IZU3 1-230, K52A;R53A;R54A;K55A;K56A;R57A;K88A;R89A;K90A;R91A).
T1 sequence: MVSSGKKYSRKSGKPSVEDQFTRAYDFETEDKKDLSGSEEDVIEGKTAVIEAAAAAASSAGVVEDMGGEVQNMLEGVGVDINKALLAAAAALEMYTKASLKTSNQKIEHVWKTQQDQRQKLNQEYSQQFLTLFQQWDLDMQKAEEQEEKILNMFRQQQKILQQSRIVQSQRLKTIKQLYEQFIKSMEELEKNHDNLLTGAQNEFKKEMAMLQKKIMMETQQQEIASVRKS
Briefly: fluorescence anisotropy; up to 20 uM protein; 20 mM Tris pH 8.0, 150 mM KCl; FA at 25 C with 25 nM DNA (0-20 uM protein); EMSA 5 min at 4 C with 18.7 uM (per bp) DNA (0-40 uM protein), 0.5% agarose, 0.5x TBE. Particulars: protein: recombinant; tags: N-terminal His6, TEV-cleaved; chain copies: 4; label: 5' FAM.

B1: 60 bp FAM-dsDNA (dsDNA)
DNA 1: ATGGTGTGTGTAGGTTAATGTGAGGAGGAGAGGTGAAGAAGGAGGAGAGAAGAAGGAGGC
DNA 2: GCCTCCTTCTTCTCTCCTCCTTCTTCACCTCTCCTCCTCACATTAACCTACACACACCAT
Turning to B1, the binding result was “no binding”.
